According to the supplement of paper PMC10126150:
± gives the standard deviation of the averaged measurements.
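Further: ATP exposure 15 min at 22 °C before imaging.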

These sequences were tested on ATP (assay: switch fluorescence ratio, 500 uM ATP over buffer (Cy3 cluster intensity, sum of 5 cycles each) (fold (ratio)); higher = stronger signal-on switching upon ATP binding; sequences stand for … in TCGTCGGCAGCGTCAGATGTGTATAAGAGACAGTTTTTTTTTTTTTTTTTTTTTTTTT…TC). Settings: aptamer strand: ATP DNA aptamer (quencher-CACCTGGGGGAGTATTGCGGAGGAAGG + anchor), 100 nM annealed; ATP concentration: 500 uM.
Method in brief: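 Between each of five buffer/ATP cycles, the flow-cell was stripped with NaOH and re-annealed. Each cycle imaged Cy3-labelled switching-strand clusters, annealed to 100 nM quencher-labelled ATP aptamer on a modified Illumina MiSeq flow-cell, first in selection buffer and then after 15 min with 500 uM ATP at 22 °C. The fluorescence ratio is summed target-cycle over summed buffer-cycle Cy3 intensity per cluster, averaged per switch-domain sequence, with clusters outside 100-1000 RFU excluded.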
Work on ATCTGTATCC yielded a switch fluorescence ratio of 1.05 ± 0.04. TGTATTATGG showed a switch fluorescence ratio of 0.968 ± 0.0097. Work on GGTCTAACAT yielded a switch fluorescence ratio of 0.998 ± 0.015. TGCTTTCTTC showed a switch fluorescence ratio of 1.15 ± 0.31. With TGTTGCGGGG the switch fluorescence ratio was 0.995 ± 0.038. Sequence CAAGAGGGGT has a switch fluorescence ratio of 1.01 ± 0.016. Sequence CATCGGTGGG has a switch fluorescence ratio of 0.97 ± 0.016. With TTAGAGTGGA the switch fluorescence ratio was 0.968 ± 0.024. With CGTGAAAAGA the switch fluorescence ratio was 0.986 ± 0.033. Work on GGGCGCTAGG yielded a switch fluorescence ratio of 0.971 ± 0.014. TGGATGAAGA was tested, and the switch fluorescence ratio was 1.025 ± 0.0078. Sequence GAGGACGGTG has a switch fluorescence ratio of 1.03 ± 0.015. TGTTTATTTC showed a switch fluorescence ratio of 1.03 ± 0.08. TGGGCCTATT gave a switch fluorescence ratio of 0.976 ± 0.063. In the case of GCGTTATATT, the switch fluorescence ratio is reported as 1 ± 0.018. With GGGGGCCACT the switch fluorescence ratio was 0.975 ± 0.041. In the case of CCTTTTAGTT, the switch fluorescence ratio is reported as 0.988 ± 0.026. In the case of TTTATTGGGC, the switch fluorescence ratio is reported as 0.988 ± 0.053. TATAGAAAGT gave a switch fluorescence ratio of 0.9981 ± 0.0066. TATGCCGGGG gave a switch fluorescence ratio of 0.988 ± 0.057. Sequence ATGTGCGCAC has a switch fluorescence ratio of 1.002 ± 0.0023. TGTCCGTTGG gave a switch fluorescence ratio of 1.05 ± 0.084. With ACATGAAGAT the switch fluorescence ratio was 1.031 ± 0.0025. In the case of CTCCTACAGC, the switch fluorescence ratio is reported as 1.32 ± 0.2. TGATGTTGAC was tested, and the switch fluorescence ratio was 1 ± 0.013. CTGTGTGCGG gave a switch fluorescence ratio of 0.97 ± 0.03. Sequence GAGTTCAATG has a switch fluorescence ratio of 1.01 ± 0.03. Sequence CTTACCTTGA has a switch fluorescence ratio of 0.997 ± 0.031. For CTACATGTAA, the switch fluorescence ratio was 1.03 ± 0.081. In the case of ACGGAACAGC, the switch fluorescence ratio is reported as 1.11 ± 0.13. With CCGCGGATGG the switch fluorescence ratio was 1.25 ± 0.15. For ATGTATAGCA, the switch fluorescence ratio was 1 ± 0.041. For AGGGTTTACG, the switch fluorescence ratio was 1.05 ± 0.045. AGTTGGGGTA gave a switch fluorescence ratio of 1 ± 0.013. CGGCTCGTTT was tested, and the switch fluorescence ratio was 1.049 ± 0.0079. With AGCAGGACCC the switch fluorescence ratio was 1.23 ± 0.054. Sequence ACTATGGCCC has a switch fluorescence ratio of 1.03 ± 0.017. GGGATCTATG was tested, and the switch fluorescence ratio was 1.02 ± 0.027. Work on CGAGGGTTTG yielded a switch fluorescence ratio of 0.9968 ± 0.0032. With GGGCGTTGTG the switch fluorescence ratio was 1.05 ± 0.11. Sequence GGGATCCGAC has a switch fluorescence ratio of 1.05 ± 0.041. TGGCAGTTTT was tested, and the switch fluorescence ratio was 1.02 ± 0.013. In the case of CATTCTGCGG, the switch fluorescence ratio is reported as 1.049 ± 0.002. TCTCCCGGCA was tested, and the switch fluorescence ratio was 1.34 ± 0.2. In the case of TTTAAATTAG, the switch fluorescence ratio is reported as 0.969 ± 0.046. TAGCAGGCTA was tested, and the switch fluorescence ratio was 1 ± 0.013. CCTCGTTATT was tested, and the switch fluorescence ratio was 1.27 ± 0.027. TGGGTTAGTA gave a switch fluorescence ratio of 0.984 ± 0.015. With CCGATCGTGG the switch fluorescence ratio was 2.86 ± 1.9. TAAGGGTTGC showed a switch fluorescence ratio of 1.03 ± 0.016. CGGGGTTTCG showed a switch fluorescence ratio of 0.993 ± 0.028. Work on GGTAGCGAAA yielded a switch fluorescence ratio of 1.009 ± 0.0051. TACGGGTGCT showed a switch fluorescence ratio of 1.16 ± 0.16. With GGGGCAAATT the switch fluorescence ratio was 1.05 ± 0.12. Work on CGAGGATTTG yielded a switch fluorescence ratio of 0.994 ± 0.018. In the case of TCTTAAAATT, the switch fluorescence ratio is reported as 1.012 ± 0.0091. Sequence ATGTGATAGG has a switch fluorescence ratio of 1.01 ± 0.058. CGCGACCATT was tested, and the switch fluorescence ratio was 0.967 ± 0.051. For AATTGGTTCG, the switch fluorescence ratio was 0.984 ± 0.012. In the case of ATGAATGGGG, the switch fluorescence ratio is reported as 1.01 ± 0.072. For CAAGATAGGG, the switch fluorescence ratio was 1.01 ± 0.026. For AGGAAGAGGC, the switch fluorescence ratio was 1.08 ± 0.18. Sequence TTACGACTGT has a switch fluorescence ratio of 1.004 ± 0.0014. Sequence TTTATAAAGT has a switch fluorescence ratio of 0.958 ± 0.032. In the case of GGTGTTTGCT, the switch fluorescence ratio is reported as 0.965 ± 0.022. TTTGTATGGA gave a switch fluorescence ratio of 0.973 ± 0.011. GGGATAGCCG was tested, and the switch fluorescence ratio was 1 ± 0.059. With CGTTAGATTG the switch fluorescence ratio was 0.998 ± 0.051. For GAGGGGGCCC, the switch fluorescence ratio was 1.01 ± 0.026. Sequence ATGTATGTAA has a switch fluorescence ratio of 1.01 ± 0.018. GTGTGGAAGA gave a switch fluorescence ratio of 1.019 ± 0.0054. With GGGACTTTTT the switch fluorescence ratio was 0.999 ± 0.043. For CAATGAGCCG, the switch fluorescence ratio was 1.02 ± 0.052. In the case of GTAAGAGTGC, the switch fluorescence ratio is reported as 1.03 ± 0.026. GGGTAATGGC showed a switch fluorescence ratio of 0.971 ± 0.014. CGGTATGGGA gave a switch fluorescence ratio of 0.979 ± 0.044. Sequence GGTGCTAGCG has a switch fluorescence ratio of 1.0247 ± 0.00089. TTATGGGAGT gave a switch fluorescence ratio of 0.966 ± 0.026. Work on CCTTGTATAT yielded a switch fluorescence ratio of 1.077 ± 0.0083. For ACTAAAGGGG, the switch fluorescence ratio was 1.04 ± 0.021. For AGTATAAAAA, the switch fluorescence ratio was 1.03 ± 0.062. Sequence CTGAGGCACG has a switch fluorescence ratio of 1.09 ± 0.068. AATGTAGGCT was tested, and the switch fluorescence ratio was 1.03 ± 0.027. CAACTGCAGC gave a switch fluorescence ratio of 1.26 ± 0.049. Sequence CGGGATTTTT has a switch fluorescence ratio of 0.973 ± 0.054.
